From publication PMC10501187

Target: GABARAP (UniProt O95166)
Assay: GST-GABARAP pull-down from cell lysate
Conditions: reference: wild type

Row | binding against the reference (sites T54) | binding against the reference (sites S65) | Substance
1 | weaker |  | ORP8 (from UniProt Q9BZF1) T54A
2 |  | weaker | ORP8 (from UniProt Q9BZF1) S65A
